T1: PDZRN3_1, Q9UPQ7
T1 sequence (Q9UPQ7 244-349, limits assumed, looked up): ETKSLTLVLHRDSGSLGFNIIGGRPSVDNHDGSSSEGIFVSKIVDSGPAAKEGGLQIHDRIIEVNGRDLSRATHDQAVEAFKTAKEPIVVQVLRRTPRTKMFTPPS

T2: SNTB1, Q13884
T2 sequence (Q13884 107-205, limits assumed, looked up): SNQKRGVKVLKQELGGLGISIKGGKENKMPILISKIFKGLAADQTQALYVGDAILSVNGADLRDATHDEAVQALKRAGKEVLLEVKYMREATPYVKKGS

T3: DFNB31_2, Q9P202
T3 sequence (Q9P202 274-371, limits assumed, looked up): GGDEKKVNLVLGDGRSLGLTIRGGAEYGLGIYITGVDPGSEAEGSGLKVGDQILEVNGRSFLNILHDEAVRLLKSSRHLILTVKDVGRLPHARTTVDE

T4: HTRA4, P83105
T4 sequence (P83105 378-476, limits assumed, looked up): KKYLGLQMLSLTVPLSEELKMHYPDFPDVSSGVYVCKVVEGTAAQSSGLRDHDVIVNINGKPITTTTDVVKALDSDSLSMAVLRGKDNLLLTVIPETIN

T5: PARD3B_1, Q8TEW8
T5 sequence (Q8TEW8 196-299, limits assumed, looked up): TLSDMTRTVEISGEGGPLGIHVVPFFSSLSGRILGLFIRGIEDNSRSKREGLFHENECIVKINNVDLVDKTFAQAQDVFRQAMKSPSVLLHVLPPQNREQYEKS

T6: TX1BP3, O14907
T6 sequence (O14907 10-122, limits assumed, looked up): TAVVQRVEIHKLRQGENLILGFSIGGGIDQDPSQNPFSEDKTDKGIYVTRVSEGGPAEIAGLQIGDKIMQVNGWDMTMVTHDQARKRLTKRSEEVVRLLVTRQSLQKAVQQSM

T7: SHANK1, Q9Y566
T7 sequence (Q9Y566 658-767, limits assumed, looked up): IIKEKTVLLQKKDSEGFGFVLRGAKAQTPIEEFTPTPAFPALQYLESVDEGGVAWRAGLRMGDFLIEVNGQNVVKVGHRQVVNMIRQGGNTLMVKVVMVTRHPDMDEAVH

T8: GRIP1_2, Q9Y3R0
T8 sequence (Q9Y3R0 145-248, limits assumed, looked up): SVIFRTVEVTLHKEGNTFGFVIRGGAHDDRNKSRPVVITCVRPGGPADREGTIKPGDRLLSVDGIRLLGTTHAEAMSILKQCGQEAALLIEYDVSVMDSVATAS

T9: ARHGAP21, Q5T5U3
T9 sequence (Q5T5U3 45-169, limits assumed, looked up): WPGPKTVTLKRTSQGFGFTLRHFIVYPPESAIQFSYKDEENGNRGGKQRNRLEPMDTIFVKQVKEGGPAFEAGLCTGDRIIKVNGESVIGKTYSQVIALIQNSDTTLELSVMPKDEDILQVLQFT

T10: MPP2, Q14168
T10 sequence (Q14168 180-250, limits assumed, looked up): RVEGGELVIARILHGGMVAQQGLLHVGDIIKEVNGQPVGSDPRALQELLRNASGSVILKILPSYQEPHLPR


Assays:
Experiment in all cases: holdup assay
Set-up in all cases: key: below the threshold = too weak to quantify, mostly under pKd 3.1 to 4
Settings in all cases: plain residues with an end cap or a label only (N-terminal biotin on a linker: ado-ado)
GRASP, Q7Z6J2 = molecular target: GRASP, Q7Z6J2
PDZRN3_1, Q9UPQ7 = molecular target: T1, PDZRN3_1, Q9UPQ7
SNTB1, Q13884 = molecular target: T2, SNTB1, Q13884
DLG2_2, Q15700 = molecular target: DLG2_2, Q15700
Inadl_4, Q8NI35 = molecular target: Inadl_4, Q8NI35
MAGI3_2, Q5TCQ9 = molecular target: MAGI3_2, Q5TCQ9
IL16_4, Q14005 = molecular target: IL16_4, Q14005
MAGI2_5, Q86UL8 = molecular target: MAGI2_5, Q86UL8
GOPC, Q9HD26 = molecular target: GOPC, Q9HD26
MAGI1_1, Q96QZ7 = molecular target: MAGI1_1, Q96QZ7
FRMPD2_2, Q68DX3 = molecular target: FRMPD2_2, Q68DX3
DFNB31_2, Q9P202 = molecular target: T3, DFNB31_2, Q9P202
HTRA4, P83105 = molecular target: T4, HTRA4, P83105
DLG5_1, Q8TDM6 = molecular target: DLG5_1, Q8TDM6
PARD3B_1, Q8TEW8 = molecular target: T5, PARD3B_1, Q8TEW8
TX1BP3, O14907 = molecular target: T6, TX1BP3, O14907
LAP2, Q96RT1 = molecular target: LAP2, Q96RT1
GRIP2_3, Q9C0E4 = molecular target: GRIP2_3, Q9C0E4
HTRA2, O43464 = molecular target: HTRA2, O43464
Inadl_3, Q8NI35 = molecular target: Inadl_3, Q8NI35
SHANK1, Q9Y566 = molecular target: T7, SHANK1, Q9Y566
NHERF2_2, Q15599 = molecular target: NHERF2_2, Q15599
GRIP1_2, Q9Y3R0 = molecular target: T8, GRIP1_2, Q9Y3R0
PARD3_3, Q8TEW0 = molecular target: PARD3_3, Q8TEW0
ARHGAP21, Q5T5U3 = molecular target: T9, ARHGAP21, Q5T5U3
MPP2, Q14168 = molecular target: T10, MPP2, Q14168

Chain of GRIP2_3, Q9C0E4 (Q9C0E4 238-339): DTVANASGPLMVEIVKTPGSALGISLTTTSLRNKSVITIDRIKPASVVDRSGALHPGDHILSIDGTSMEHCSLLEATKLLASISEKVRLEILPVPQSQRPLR
Chain of Inadl_3, Q8NI35 (Q8NI35 359-469): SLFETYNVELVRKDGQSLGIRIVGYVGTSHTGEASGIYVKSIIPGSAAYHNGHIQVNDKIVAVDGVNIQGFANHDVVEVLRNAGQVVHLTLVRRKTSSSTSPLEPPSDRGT
Chain of FRMPD2_2, Q68DX3 (Q68DX3 944-1038): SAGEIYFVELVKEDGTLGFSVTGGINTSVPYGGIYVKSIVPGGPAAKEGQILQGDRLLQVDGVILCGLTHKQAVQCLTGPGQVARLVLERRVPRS
Chain of IL16_4, Q14005 (Q14005 1229-1329): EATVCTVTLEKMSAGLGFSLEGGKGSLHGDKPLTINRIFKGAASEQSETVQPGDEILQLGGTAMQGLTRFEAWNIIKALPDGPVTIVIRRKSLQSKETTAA
Chain of MAGI2_5, Q86UL8 (Q86UL8 915-1017): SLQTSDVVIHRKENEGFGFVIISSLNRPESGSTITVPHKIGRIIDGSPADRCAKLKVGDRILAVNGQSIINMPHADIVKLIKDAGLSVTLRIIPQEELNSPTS
Chain of GRASP, Q7Z6J2 (Q7Z6J2 96-193): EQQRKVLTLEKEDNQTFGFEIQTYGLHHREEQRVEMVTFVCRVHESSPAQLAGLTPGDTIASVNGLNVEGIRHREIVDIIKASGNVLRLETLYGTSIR
Chain of LAP2, Q96RT1 (Q96RT1 other isoform, or with tags, fused parts or gaps): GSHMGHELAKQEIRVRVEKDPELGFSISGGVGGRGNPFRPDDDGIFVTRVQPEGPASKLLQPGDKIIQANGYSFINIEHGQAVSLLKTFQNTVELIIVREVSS
Chain of HTRA2, O43464 (O43464 355-458): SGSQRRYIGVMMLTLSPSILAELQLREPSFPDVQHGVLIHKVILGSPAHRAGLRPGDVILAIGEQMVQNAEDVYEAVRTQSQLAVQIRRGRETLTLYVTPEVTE
Chain of NHERF2_2, Q15599 (Q15599 142-238): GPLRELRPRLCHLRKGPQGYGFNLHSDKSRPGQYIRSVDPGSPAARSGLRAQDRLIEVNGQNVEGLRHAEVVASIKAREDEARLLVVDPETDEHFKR
Chain of DLG5_1, Q8TDM6 (Q8TDM6 617-713): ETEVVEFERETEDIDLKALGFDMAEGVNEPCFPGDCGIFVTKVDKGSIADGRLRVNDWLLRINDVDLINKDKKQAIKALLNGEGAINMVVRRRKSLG
Chain of Inadl_4, Q8NI35 (Q8NI35 547-651): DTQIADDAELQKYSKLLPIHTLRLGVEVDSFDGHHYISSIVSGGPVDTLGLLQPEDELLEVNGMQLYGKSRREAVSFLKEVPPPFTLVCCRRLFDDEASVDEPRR
Chain of MAGI3_2, Q5TCQ9 (Q5TCQ9 398-503): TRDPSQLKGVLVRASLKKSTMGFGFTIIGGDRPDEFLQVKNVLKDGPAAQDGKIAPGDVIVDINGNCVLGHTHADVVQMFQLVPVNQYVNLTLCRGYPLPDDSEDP
Chain of MAGI1_1, Q96QZ7 (Q96QZ7 1-106): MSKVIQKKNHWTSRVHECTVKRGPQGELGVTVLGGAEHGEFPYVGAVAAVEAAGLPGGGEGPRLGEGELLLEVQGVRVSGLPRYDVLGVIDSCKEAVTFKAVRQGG
Chain of PARD3_3, Q8TEW0 (Q8TEW0 582-685): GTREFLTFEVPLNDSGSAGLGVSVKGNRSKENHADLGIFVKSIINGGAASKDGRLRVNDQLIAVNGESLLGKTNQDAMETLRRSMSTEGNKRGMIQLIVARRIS
Chain of DLG2_2, Q15700 (Q15700 189-283): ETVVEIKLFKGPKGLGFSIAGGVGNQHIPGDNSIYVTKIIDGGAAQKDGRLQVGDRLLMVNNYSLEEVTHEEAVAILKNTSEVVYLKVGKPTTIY

Row | Binder | pKd (GRASP, Q7Z6J2) | pKd (PDZRN3_1, Q9UPQ7) | pKd (SNTB1, Q13884) | pKd (DLG2_2, Q15700) | pKd (Inadl_4, Q8NI35) | pKd (MAGI3_2, Q5TCQ9) | pKd (IL16_4, Q14005) | pKd (MAGI2_5, Q86UL8) | pKd (GOPC, Q9HD26) | pKd (MAGI1_1, Q96QZ7) | pKd (FRMPD2_2, Q68DX3) | pKd (DFNB31_2, Q9P202) | pKd (HTRA4, P83105) | pKd (DLG5_1, Q8TDM6) | pKd (PARD3B_1, Q8TEW8) | pKd (TX1BP3, O14907) | pKd (LAP2, Q96RT1) | pKd (GRIP2_3, Q9C0E4) | pKd (HTRA2, O43464) | pKd (Inadl_3, Q8NI35) | also measured
1 | GIKKITSTAL [RPS6KA3, P51812] | 4.68 | 4.36 | 4.23 | 3.88 | below the threshold | 4.08 | 3.78 | 3.95 | 4.5 | below the threshold | 3.5 | below the threshold | below the threshold | below the threshold | 4.05 | 4.59 | below the threshold | 3.56 | 3.55 | below the threshold | pKd (SHANK1, Q9Y566): 5.16; pKd (NHERF2_2, Q15599): 4.76; pKd (GRIP1_2, Q9Y3R0): 3.5; pKd (PARD3_3, Q8TEW0): 3.51; pKd (ARHGAP21, Q5T5U3): 3.93; pKd (MPP2, Q14168): below the threshold
2 | PSHPRLQTHV [KIRREL2, Q6UWL6] | 4.18 | below the threshold | 3.48 | 4.28 | below the threshold | 5.1 | below the threshold | 3.58 | below the threshold | below the threshold | below the threshold | below the threshold | 3.6 | below the threshold | below the threshold | 4.64 | below the threshold | below the threshold | below the threshold | below the threshold | pKd (SHANK1, Q9Y566): 3.84; pKd (NHERF2_2, Q15599): below the threshold; pKd (GRIP1_2, Q9Y3R0): below the threshold; pKd (PARD3_3, Q8TEW0): below the threshold; pKd (ARHGAP21, Q5T5U3): below the threshold; pKd (MPP2, Q14168): below the threshold
3 | NNNVVKVDSV [MTNR1A, P48039] | below the threshold | below the threshold | below the threshold | below the threshold | below the threshold | below the threshold | 3.5 | below the threshold | below the threshold | below the threshold | below the threshold | below the threshold | 3.82 | below the threshold | below the threshold | below the threshold | below the threshold | below the threshold | below the threshold | below the threshold | pKd (SHANK1, Q9Y566): below the threshold; pKd (NHERF2_2, Q15599): below the threshold; pKd (GRIP1_2, Q9Y3R0): below the threshold; pKd (PARD3_3, Q8TEW0): below the threshold; pKd (ARHGAP21, Q5T5U3): below the threshold; pKd (MPP2, Q14168): below the threshold

Further lines, with some results ahead:

Row | pKd (GRASP, Q7Z6J2) | pKd (PDZRN3_1, Q9UPQ7) | pKd (SNTB1, Q13884) | pKd (DLG2_2, Q15700) | pKd (Inadl_4, Q8NI35) | pKd (MAGI3_2, Q5TCQ9) | pKd (IL16_4, Q14005) | pKd (MAGI2_5, Q86UL8) | pKd (GOPC, Q9HD26) | pKd (MAGI1_1, Q96QZ7) | pKd (FRMPD2_2, Q68DX3) | pKd (DFNB31_2, Q9P202) | pKd (HTRA4, P83105) | pKd (DLG5_1, Q8TDM6) | pKd (PARD3B_1, Q8TEW8) | pKd (TX1BP3, O14907) | pKd (LAP2, Q96RT1) | pKd (GRIP2_3, Q9C0E4) | pKd (HTRA2, O43464) | pKd (Inadl_3, Q8NI35) | Binder | also measured
4 | 4.62 | below the threshold | 3.51 | below the threshold | below the threshold | below the threshold | below the threshold | below the threshold | 3.5 | below the threshold | below the threshold | below the threshold | 3.8 | below the threshold | 3.63 | below the threshold | below the threshold | below the threshold | below the threshold | below the threshold | GEDRSPPTAL [MKNK1, Q9BUB5] | pKd (SHANK1, Q9Y566): below the threshold; pKd (NHERF2_2, Q15599): 3.91; pKd (GRIP1_2, Q9Y3R0): below the threshold; pKd (PARD3_3, Q8TEW0): below the threshold; pKd (ARHGAP21, Q5T5U3): below the threshold; pKd (MPP2, Q14168): below the threshold
5 | below the threshold | below the threshold | 3.51 | 3.5 | below the threshold | 3.62 | below the threshold | below the threshold | below the threshold | 3.59 | below the threshold | below the threshold | 3.74 | 3.59 | 5.1 | below the threshold | 3.56 | below the threshold | below the threshold | below the threshold | NVYGIESVKI [GRIA2, P42262] | pKd (SHANK1, Q9Y566): 3.9; pKd (NHERF2_2, Q15599): 3.71; pKd (GRIP1_2, Q9Y3R0): below the threshold; pKd (PARD3_3, Q8TEW0): 3.78; pKd (ARHGAP21, Q5T5U3): below the threshold; pKd (MPP2, Q14168): below the threshold
6 | below the threshold | 4 | 5.38 | 3.95 | below the threshold | below the threshold | 3.49 | below the threshold | below the threshold | below the threshold | below the threshold | below the threshold | below the threshold | below the threshold | below the threshold | below the threshold | below the threshold | below the threshold | below the threshold | below the threshold | SVTSERETNI [SLC16A7, O60669] | pKd (SHANK1, Q9Y566): below the threshold; pKd (NHERF2_2, Q15599): below the threshold; pKd (GRIP1_2, Q9Y3R0): below the threshold; pKd (PARD3_3, Q8TEW0): below the threshold; pKd (ARHGAP21, Q5T5U3): below the threshold; pKd (MPP2, Q14168): below the threshold

From publication PMC9482650, “Quantitative fragmentomics allow affinity mapping of interactomes” (Nature Communications, 2022)
